experiment: yeast display, Sf9 membrane polyspecificity reagent, FACS + sequencing; frameworks hold sequencing errors
Method in brief: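 Galactose-induced (36–48 hours) yeast carrying a synthetic nanobody display library were exposed to 10% biotinylated, detergent-solubilized Sf9 membrane reagent at 4 °C for 1 hour. FACS followed streptavidin microbead enrichment, using low and high (top ~1%) gates for expression (anti-HA) and reagent binding (streptavidin). Colony PCR, MiSeq 2 × 250 sequencing and CDR-length filtering followed. Labels for polyreactivity reflect the gate of origin.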

Sequence | polyreactivity (PSR sort gate)
QVQLVESGGGLVQAGGSLRLSCAASGNIFSDNAMGWYRQAPGKERELVAAITSGGSTIYADSVKGRFTISRDNAKNTVYLQMNSLKPEDTAVYYCAADISYRHFLFDFWGQGTQVTVSS | low polyreactivity
QVQLVESGGGLVQAGGSLRLSCAASGNIFSDYAMGWYRQAPGKERELVAAISSGGNTNYADSVKRRFSISRDNAKNTVYLEMNSLKPEDTAVYYCAAVYNTTYTLLPEYSDVKYYYWGQGTQVTVSS | low polyreactivity
QVQLVESGGGLVQAGGSLRLSCAASGNIFSFNDMGWYRQAPGKERELVAAITSSDSTNYADSVKGRFTISRDNAKNTVYLQMNSLKPEDTAVFYCATEILTAARDTVVYQFYLGYYYWGQGTQVTVSS | low polyreactivity
QVQLVESGGGLVQAGGSLRLSCAASGNIFSFNDMGWYRQAPGKERELVAGITTSESTNYADSVKGRFTISRDNAKNTVYLQMNSLKPEDTAVYYCATEILTAARDTVVYQFYLGYYYWGQGTQVTVSS | low polyreactivity
QVQLVESGGGLVQAGGSLRLSCAASGNIFSRNAMGWYRQAPGKERELVASIDNSTSGTYYADSVKGRFTISRDNAKNTVYLQMKSLKPEDTAVYYCAATPLVDGSSIPREGDYWGQGTQVSVSS | low polyreactivity
QVQLVESGGGLVQAGGSLRLSCAASGNIFSRYAMGWYRQAPGKERELVASISRGGRTNYADSVKGRFTISRDNAKNTVYLQMNSLKPEDTAVYYCAKGGKGYWHPTGPYPFNYWGQGTQVTVSS | high polyreactivity
QVQLVESGGGLVQAGGSLRLSCAASGNIFSSNAMGWYRQAPGKERELDAAITRSGGSTYYADSVKGRFTISRDNAKNTVYLQMNSLKPEDTAVYYCAARHYPRNSWGYDYWGQGTQVTVSS | high polyreactivity
QVQLVESGGGLVQAGGSLRLSCAASGNIFSYNAMAWYRQAPGKERELVAAITTSSGRTYYADSVKGRFTISRDIAKNTVYLQMNSLKPEVTAVYYCNAVQRYQMGYWGQGTQVTVSS | high polyreactivity
QVQLVESGGGLVQAGGSLRLSCAASGNIFSYNAMGWYRQAPGKEREFVAAITFSSDRTYYADSVKGRFTISRDNAKNTVYLQMNSLKPEDTAVYYCAADTRYINYKRYYYWGQGTQVTVSS | high polyreactivity
QVQLVESGGGLVQAGGSLRLSCAASGNIFSYYAMGWYRQAPGKERELVAAIYTGGSTYYADSVKGRFTISRDNAKNTVYLQMNSLKPEDTEVYYCAASGLNLRQDYDYWGQGTQVTVSS | low polyreactivity
QVQLVESGGGLVQAGGSLRLSCAASGNIFVEYAMGWYRPAPGKERELVAAITNSGGRTHYSDSVKGRFTISRDNAKNTVYLQMNSLKPEDSEVYFCAAPTKYRSRRYYWGQGTQVTVSS | high polyreactivity
QVQLVESGGGLVQAGGSLRLSCAASGNIFVEYAMGWYRQAPGKERELVAAITNSGGRTHYADSVKGRFTISRDNAKNTVYLQMNSLKPEDTAVYYCAAPTKYRSRRYYWGQGTQVTVSS | high polyreactivity
QVQLVESGGGLVQAGGSLRLSCAASGNIFVFYVMGWYRQAPGKERELVASISSTGNTYYADSVKGRFTISRDNAKNTVYLQMNSLKPEDTAVYYCAADSHQNVSGWLRWPRMDYWGQGTQVTVSS | low polyreactivity
QVQLVESGGGLVQAGGSLRLSCAASGNIFVINAMGWYRQAPGKERELVAAINWTGGNTYYADSVKGRFTISRDNAKNTFYLQMNSLKPEDTAVYYSAADRRWFVWGLGYWGQGTQVTVSS | low polyreactivity
QVQLVESGGGLVQAGGSLRLSCAASGNIFVRYTMGWYRQAPGTERELVARITSGGSTYYADSVKGRFTISRDNAKNTVYLQMNSLKPEDTAVYYCAAAIGTRLYSYYYWGQGTQVTVSS | high polyreactivity
QVQLVESGGGLVQAGGSLRLSCAASGNIFVTYAMGWYRQAPGKERELVAGITSSDDSTYYADSVKGRFTISRDNAKNTVYLQMNSLKPEDPAVYYCATYYWEVGIGQYYYWGQGTQVTVSS | low polyreactivity
